Here are results for 46 substances from US12065471B2, “B*44 restricted peptides for use in immunotherapy against cancers and related methods” (Immatics Biotechnologies GmbH, priority 2018, dated 2024).

The test deals with HLA-B*44:05 (Homo sapiens, UniProt P01889, A223V/A65T/A93T/A95T/D201E/D98Y/E176V/E187L/E204Q/E69K/G107R/H137Y/K202T/L105A/L119I/N104T/N87E/Q56L/Q94N/R106L/R155S/R180D/S101N/S121R/S35A/S48T/T118I/V36M/W191S/Y91S). In words: MHC binding assay (UV-ligand exchange, β2m ELISA, peptide exchange yield). As to conditions: binding to HLA-B*44:05. An excerpt: Candidate peptides for T cell-based therapies according to the present invention were further tested for their MHC binding capacity (affinity). The individual peptide-MHC complexes were produced by UV-ligand exchange, where a UV-sensitive peptide is cleaved upon UV-irradiation and exchanged with the peptide of interest as analyzed. Only peptide candidates that can effectively bind and stabilize the peptide-receptive MHC molecules prevent dissociation of the MHC complexes. To determine the yield of the exchange reaction, an ELISA was performed based on the detection of the light chain (β2m) of stabilized MHC complexes. The assay was performed as generally described in Rodenko et al. (Rodenko et al., 2006)
96 well MAXISorp plates (NUNC) were coated over night with 2 μg/ml streptavidin in PBS at room temperature, washed 4× and blocked for 1 h at 37° C. in 2% BSA containing blocking buffer. Refolded HLA-A*02:01/MLA-001 monomers served as standards, covering the range of 15-500 ng/ml. Peptide-MHC monomers of the UV-exchange reaction were diluted 100-fold in blocking buffer. Samples were incubated for 1h at 37° C., washed four times, incubated with 2 μg/ml HRP conjugated anti-β2m for 1h at 37° C., washed again and detected with TMB solution that is stopped with […]. Absorption was measured at 450 nm.
In general terms: In an ELISA, binding on a coated surface is turned into a signal by an enzyme label.

On to “369 (KELEERMLHW; listed as Homo sapiens) [compound 369]”, for which the “Peptide exchange (MHC class I binding score, peptide exchange yield)” value (“Peptide exchange” for short) is reported as “++++ (>75% = ++++)”.

For “265 (EDNLIHKF; listed as Homo sapiens) [compound 265]”, the “Peptide exchange” value is given as “++ (>20% = ++)”.

Regarding “279 (GEPVTQPGSLL; listed as Homo sapiens) [compound 279]”, the “Peptide exchange” value is listed as “+++ (>50 = +++)”.

For “276 (SEYQDGKEF; listed as Homo sapiens) [compound 276]”, the “Peptide exchange” value was “++ (>20% = ++)”.

As to “231 (AEALVDGKWQEF; listed as Homo sapiens) [compound 231]”, the “Peptide exchange” value is listed as “+++ (>50 = +++)”.

For “442 (KESDAGKYY; listed as Homo sapiens) [compound 442]”, the “Peptide exchange” value is “+++ (>50 = +++)”.

Take “268 (EDLAVHLY; listed as Homo sapiens) [compound 268]”: the “Peptide exchange” value was “+ (>10% = +)”.

Turning to “290 (AECILSKRL; listed as Homo sapiens) [compound 290]”, the “Peptide exchange” value is “+++ (>50 = +++)”.

For the substance “112 (AEIEADRSYQH; listed as Homo sapiens) [compound 112]”, the “Peptide exchange” value is “+++ (>50 = +++)”.

With “258 (IEVSSPITL; listed as Homo sapiens) [compound 258]”, the “Peptide exchange” value is on record as “++++ (>75% = ++++)”.

For the substance “321 (AENPLNIFYI; listed as Homo sapiens) [compound 321]”, the “Peptide exchange” value is recorded as “+++ (>50 = +++)”.

On to “2 (EEFLRPRSL; listed as Homo sapiens) [compound 2]”, for which the “Peptide exchange” value was “++ (>20% = ++)”.

As to “262 (YENILNAI; listed as Homo sapiens) [compound 262]”, the “Peptide exchange” value is given as “++ (>20% = ++)”.

Regarding “447 (KEFGLDSVEL; listed as Homo sapiens) [compound 447]”, the “Peptide exchange” value is “+++ (>50 = +++)”.

Turning to “320 (AENPLNIFY; listed as Homo sapiens) [compound 320]”, the “Peptide exchange” value is recorded as “++++ (>75% = ++++)”.

Regarding “328 (HENGVLTKF; listed as Homo sapiens) [compound 328]”, the “Peptide exchange” value is “++ (>20% = ++)”.

Regarding “259 (IEVSSPITLQAL; listed as Homo sapiens) [compound 259]”, the “Peptide exchange” value was “++ (>20% = ++)”.

Regarding “288 (TEHFLKKFF; listed as Homo sapiens) [compound 288]”, the “Peptide exchange” value was “+++ (>50 = +++)”.

Take “431 (QELLDFTNW; listed as Homo sapiens) [compound 431]”: the “Peptide exchange” value is on record as “++++ (>75% = ++++)”.

On to “126 (SEASQSPQY; listed as Homo sapiens) [compound 126]”, for which the “Peptide exchange” value is “+++ (>50 = +++)”.

Regarding “108 (QETNKVETY; listed as Homo sapiens) [compound 108]”, the “Peptide exchange” value is “+++ (>50 = +++)”.

On to “336 (QEVNISLHY; listed as Homo sapiens) [compound 336]”, for which the “Peptide exchange” value is recorded as “++++ (>75% = ++++)”.

On to “74 (AELEGALQKA; listed as Homo sapiens) [compound 74]”, for which the “Peptide exchange” value was “++ (>20% = ++)”.

With “189 (ALNGDIYVW; listed as Homo sapiens) [compound 189]”, the “Peptide exchange” value was “++++ (>75% = ++++)”.

For the substance “133 (IEAPKLMVV; listed as Homo sapiens) [compound 133]”, the “Peptide exchange” value is given as “+ (>10% = +)”.

As to “3 (DEIFTNDRRW; listed as Homo sapiens) [compound 3]”, the “Peptide exchange” value was “++ (>20% = ++)”.

For the substance “110 (EVEVGEVKSW; listed as Homo sapiens) [compound 110]”, the “Peptide exchange” value is recorded as “+ (>10% = +)”.

Consider “272 (SEQNIQRANLF; listed as Homo sapiens) [compound 272]”, for which the “Peptide exchange” value was “+++ (>50 = +++)”.

For “391 (TESIGAQIY; listed as Homo sapiens) [compound 391]”, the “Peptide exchange” value was “+++ (>50 = +++)”.

For “311 (REKDLPNYNW; listed as Homo sapiens) [compound 311]”, the “Peptide exchange” value is recorded as “++++ (>75% = ++++)”.

In the case of “287 (REVSVVDIL; listed as Homo sapiens) [compound 287]”, the “Peptide exchange” value is on record as “++++ (>75% = ++++)”.

Consider “452 (NEVDGEYRY; listed as Homo sapiens) [compound 452]”, for which the “Peptide exchange” value is “+++ (>50 = +++)”.

With “220 (EEEVFSGMKL; listed as Homo sapiens) [compound 220]”, the “Peptide exchange” value is listed as “++++ (>75% = ++++)”.

As to “164 (DEDGKIVGY; listed as Homo sapiens) [compound 164]”, the “Peptide exchange” value is “++ (>20% = ++)”.

“425 (KEVDPASNTY; listed as Homo sapiens) [compound 425]”: the “Peptide exchange” value is “+++ (>50 = +++)”.

“261 (QEWDPQKTEKY; listed as Homo sapiens) [compound 261]”: the “Peptide exchange” value is reported as “+++ (>50 = +++)”.

On to “105 (EEIFKTLNY; listed as Homo sapiens) [compound 105]”, for which the “Peptide exchange” value was “+++ (>50 = +++)”.

“365 (NESGKAFNY; listed as Homo sapiens) [compound 365]”: the “Peptide exchange” value is recorded as “++++ (>75% = ++++)”.

“342 (SENKKWVEF; listed as Homo sapiens) [compound 342]”: the “Peptide exchange” value was “++ (>20% = ++)”.

Take “249 (YEMAIYKKY; listed as Homo sapiens) [compound 249]”: the “Peptide exchange” value is “++++ (>75% = ++++)”.

Regarding “360 (DEMENLLTY; listed as Homo sapiens) [compound 360]”, the “Peptide exchange” value was “++++ (>75% = ++++)”.

“158 (VEEERYTGQW; listed as Homo sapiens) [compound 158]”: the “Peptide exchange” value is recorded as “+++ (>50 = +++)”.

For “99 (SECVKSLSF; listed as Homo sapiens) [compound 99]”, the “Peptide exchange” value was “++++ (>75% = ++++)”.

Consider “298 (KEVASNSEL; listed as Homo sapiens) [compound 298]”, for which the “Peptide exchange” value is “+++ (>50 = +++)”.

For the substance “255 (KQWEYNEKLAF; listed as Homo sapiens) [compound 255]”, the “Peptide exchange” value was “+ (>10% = +)”.

As for “392 (TEVSVLLLTF; listed as Homo sapiens) [compound 392]”, the “Peptide exchange” value is given as “+++ (>50 = +++)”.
